In patent publication US20180022819A1 (APTEVO RESEARCH AND DEVELOPMENT, published 2018):

Target: prostate-specific membrane antigen (PSMA) (human, UniProt Q04609 1-750)
Assay: cell-based or functional assay

Chain of prostate-specific membrane antigen (PSMA) (Q04609 whole entry): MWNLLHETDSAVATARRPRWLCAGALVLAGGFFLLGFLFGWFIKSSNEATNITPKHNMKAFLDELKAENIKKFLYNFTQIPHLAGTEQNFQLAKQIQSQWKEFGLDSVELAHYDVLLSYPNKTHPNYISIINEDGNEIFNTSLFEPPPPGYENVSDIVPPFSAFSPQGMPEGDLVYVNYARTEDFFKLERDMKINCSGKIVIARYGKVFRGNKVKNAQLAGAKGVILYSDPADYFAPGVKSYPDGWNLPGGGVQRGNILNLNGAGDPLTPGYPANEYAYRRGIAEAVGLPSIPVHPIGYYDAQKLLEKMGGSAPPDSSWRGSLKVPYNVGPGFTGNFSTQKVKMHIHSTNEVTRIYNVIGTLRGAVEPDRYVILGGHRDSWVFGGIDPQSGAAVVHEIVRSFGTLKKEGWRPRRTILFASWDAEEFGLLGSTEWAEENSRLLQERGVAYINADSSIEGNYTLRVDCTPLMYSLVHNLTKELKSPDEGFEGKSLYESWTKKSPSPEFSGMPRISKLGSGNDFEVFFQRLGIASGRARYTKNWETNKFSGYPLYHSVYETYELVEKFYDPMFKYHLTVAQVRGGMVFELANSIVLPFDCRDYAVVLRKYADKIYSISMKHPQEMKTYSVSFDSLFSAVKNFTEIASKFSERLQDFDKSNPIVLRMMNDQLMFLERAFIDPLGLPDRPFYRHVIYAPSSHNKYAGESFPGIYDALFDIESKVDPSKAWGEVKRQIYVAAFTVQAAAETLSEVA

B1: humanized TSC249 (huVL-VH#2 107-1A4 scFv-Fc-DRA222 scFv) (bispecific antibody)
chain: DIQMTQSPSAMSASVGDRVTITCRASKSISKYLAWFQQKPGKVPKLRIHSGSTLQSGVPSRFSGSGSGTEFTLTISSLQPEDFATYYCQQHIEYPWTFGQGTKVEIKRGGGGSGGGGSGGGGSQVQLVQSGAEVKKPGASVKVSCKASGYTFTDYYMHWVRQAPGQGLEWMGYFNPYNDYTRYAQKFQGRVTMTRDTSISTAYMELSSLRSDDTAVYYCARSDGYYDAMDYWGQGTTVTVSSSEPKSSDKTHTCPPCPAPEAAGAPSVFLFPPKPKDTLMISRTPEVTCVVVDVSHEDPEVKFNWYVDGVEVHNAKTKPREEQYNSTYRVVSVLTVLHQDWLNGKAYACAVSNKALPAPIEKTISKAKGQPREPQVYTLPPSRDELTKNQVSLTCLVKGFYPSDIAVEWESNGQPENNYKTTPPVLDSDGSFFLYSKLTVDKSRWQQGNVFSCSVMHEALHNHYTQKSLSLSPGQRHNNSSLNTGTQMAGHSPNSQVQLVESGGGVVQPGRSLRLSCKASGYTFTRSTMHWVRQAPGQGLEWIGYINPSSAYTNYNQKFKDRFTISADKSKSTAFLQMDSLRPEDTGVYFCARPQVHYDYNGFPYWGQGTPVTVSSGGGGSGGGGSGGGGSAQDIQMTQSPSSLSASVGDRVTMTCSASSSVSYMNWYQQKPGKAPKRWIYDSSKLASGVPARFSGSGSGTDYTLTISSLQPEDFATYYCQQWSRNPPTFGGGTKLQITSSS
EC50 of % live cells, GFP-LNCaP growth inhibition assay, 4 days with primary human T-cells (3:1): 15 pM | EC50 of % specific lysis, 51Cr release assay, 4 hours, untreated 22Rv1 target cells with donor T-cells (5:1): 0.8 pM
